B1: unnamed (peptide)
chain: AVPPPPPPPPLPESL
B2: unnamed (peptide)
chain: PPPPPPPPPPPLPQS
B3: unnamed (peptide)
chain: LPPPPPPPPPPPLPQ
B4: unnamed (peptide)
chain: PPPPPPPPPPLPQSL

Target: T1, Abp1, P15891
T1 sequence (P15891 535-592, looked up): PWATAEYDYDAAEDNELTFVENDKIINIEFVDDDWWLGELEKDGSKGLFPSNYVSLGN
Test: SPOT array
Details: median of control spots 935

| Binder | SPOT intensity |
| --- | --- |
| B1 | 0 |
| B2 | 0 |
| B3 | 0 |
| B4 | 0 |

Target: T2, Bbc1, P47068
T2 sequence (P47068 1-78, looked up): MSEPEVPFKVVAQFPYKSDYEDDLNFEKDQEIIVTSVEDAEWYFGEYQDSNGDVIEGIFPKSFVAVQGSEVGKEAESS
Test: SPOT array
Details: median of control spots 796

| Binder | SPOT intensity |
| --- | --- |
| B1 | 0 |
| B2 | 0 |
| B3 | 0 |
| B4 | 0 |

Target: Bem1-1, P29366
Sequence (P29366 55-141): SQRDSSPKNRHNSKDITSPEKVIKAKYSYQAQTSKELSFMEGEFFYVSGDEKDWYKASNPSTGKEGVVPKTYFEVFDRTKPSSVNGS
Test: SPOT array
Details: median of control spots 4282

| Binder | SPOT intensity |
| --- | --- |
| B1 | 0 |
| B2 | 0 |
| B3 | 0 |
| B4 | 0 |

Target: Bem1-2, P29366
Sequence (P29366 139-227): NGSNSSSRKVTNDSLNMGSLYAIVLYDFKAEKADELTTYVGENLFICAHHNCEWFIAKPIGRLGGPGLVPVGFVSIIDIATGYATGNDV
Test: SPOT array
Details: median of control spots 4347

| Binder | SPOT intensity |
| --- | --- |
| B1 | 2 |
| B2 | 0 |
| B3 | 6 |
| B4 | 1 |

Target: T3, Boi1, P38041
T3 sequence (P38041 1-86, looked up): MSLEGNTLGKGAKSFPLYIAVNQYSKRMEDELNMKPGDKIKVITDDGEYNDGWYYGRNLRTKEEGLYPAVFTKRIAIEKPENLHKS
Test: SPOT array
Details: median of control spots 1162

| Binder | SPOT intensity |
| --- | --- |
| B1 | 0 |
| B2 | 0 |
| B3 | 1 |
| B4 | 0 |

Target: T4, Boi2, P39969
T4 sequence (P39969 32-116, looked up): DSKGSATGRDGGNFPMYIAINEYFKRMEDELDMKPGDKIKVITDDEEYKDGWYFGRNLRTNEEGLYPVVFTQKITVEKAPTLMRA
Test: SPOT array
Details: median of control spots 1161

| Binder | SPOT intensity |
| --- | --- |
| B1 | 1 |
| B2 | 0 |
| B3 | 0 |
| B4 | 0 |

Target: T5, Bud14, P27637
T5 sequence (P27637 247-328, looked up): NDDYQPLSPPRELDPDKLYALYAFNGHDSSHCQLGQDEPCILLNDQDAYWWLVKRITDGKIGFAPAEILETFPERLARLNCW
Test: SPOT array
Details: median of control spots 956

| Binder | SPOT intensity |
| --- | --- |
| B1 | 0 |
| B2 | 0 |
| B3 | 0 |
| B4 | 0 |

Target: T6, Bzz1-1, P38822
T6 sequence (P38822 478-572, looked up): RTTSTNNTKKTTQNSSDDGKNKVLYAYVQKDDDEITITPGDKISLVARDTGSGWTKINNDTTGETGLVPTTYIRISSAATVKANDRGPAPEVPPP
Test: SPOT array
Details: median of control spots 4446

| Binder | SPOT intensity |
| --- | --- |
| B1 | 0 |
| B2 | 2 |
| B3 | 3 |
| B4 | 5 |

Target: T7, Bzz1-2, P38822
T7 sequence (P38822 568-633, looked up): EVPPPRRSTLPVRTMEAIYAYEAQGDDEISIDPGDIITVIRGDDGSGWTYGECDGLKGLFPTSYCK
Test: SPOT array
Details: median of control spots 4538

| Binder | SPOT intensity |
| --- | --- |
| B1 | 1 |
| B2 | 5 |
| B3 | 0 |
| B4 | 2 |

Target: T8, Cdc25, P04821
T8 sequence (P04821 50-136, looked up): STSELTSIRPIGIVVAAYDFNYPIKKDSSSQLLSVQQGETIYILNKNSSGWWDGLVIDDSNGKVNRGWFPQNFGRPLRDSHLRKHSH
Test: SPOT array
Details: median of control spots 969

| Binder | SPOT intensity |
| --- | --- |
| B1 | 0 |
| B2 | 0 |
| B3 | 1 |
| B4 | 0 |

Target: T9, Cyk3, Q07533
T9 sequence (Q07533 1-83, looked up): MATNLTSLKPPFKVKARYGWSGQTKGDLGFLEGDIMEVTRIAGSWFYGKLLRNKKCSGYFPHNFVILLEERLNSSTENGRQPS
Test: SPOT array
Details: median of control spots 1451

| Binder | SPOT intensity |
| --- | --- |
| B1 | 2 |
| B2 | 0 |
| B3 | 1 |
| B4 | 1 |

Target: T10, Fus1, P11710
T10 sequence (P11710 432-512, looked up): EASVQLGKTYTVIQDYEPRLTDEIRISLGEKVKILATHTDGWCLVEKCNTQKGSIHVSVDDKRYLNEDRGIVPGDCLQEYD
Test: SPOT array
Details: median of control spots 1200

| Binder | SPOT intensity |
| --- | --- |
| B1 | 0 |
| B2 | 2 |
| B3 | 0 |
| B4 | 0 |

Target: GST
Test: SPOT array
Details: median of control spots 978

| Binder | SPOT intensity |
| --- | --- |
| B1 | 1 |
| B2 | 0 |
| B3 | 0 |
| B4 | 1 |

Target: T11, Hof1, Q05080
T11 sequence (Q05080 590-669, looked up): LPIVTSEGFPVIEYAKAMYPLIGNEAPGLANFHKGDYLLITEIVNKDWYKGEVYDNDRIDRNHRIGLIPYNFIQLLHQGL
Test: SPOT array
Details: median of control spots 4086

| Binder | SPOT intensity |
| --- | --- |
| B1 | 1 |
| B2 | 1 |
| B3 | 1 |
| B4 | 5 |

Target: T12, Hse1, P38753
T12 sequence (P38753 208-285, looked up): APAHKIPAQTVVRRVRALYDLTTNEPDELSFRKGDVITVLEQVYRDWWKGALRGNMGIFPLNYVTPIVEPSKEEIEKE
Test: SPOT array
Details: median of control spots 1727

| Binder | SPOT intensity |
| --- | --- |
| B1 | 0 |
| B2 | 0 |
| B3 | 0 |
| B4 | 0 |

Target: T13, Lsb1, P53281
T13 sequence (P53281 45-122, looked up): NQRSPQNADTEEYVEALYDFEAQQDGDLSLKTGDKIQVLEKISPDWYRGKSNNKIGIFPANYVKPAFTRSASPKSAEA
Test: SPOT array
Details: median of control spots 388

| Binder | SPOT intensity |
| --- | --- |
| B1 | 0 |
| B2 | 0 |
| B3 | 0 |
| B4 | 0 |

Target: T14, Lsb3, P43603
T14 sequence (P43603 385-451, looked up): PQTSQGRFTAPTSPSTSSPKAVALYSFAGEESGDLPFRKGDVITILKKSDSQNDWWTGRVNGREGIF
Test: SPOT array
Details: median of control spots 406

| Binder | SPOT intensity |
| --- | --- |
| B1 | 0 |
| B2 | 0 |
| B3 | 0 |
| B4 | 0 |

Target: T15, Lsb4, P32793
T15 sequence (P32793 402-468, looked up): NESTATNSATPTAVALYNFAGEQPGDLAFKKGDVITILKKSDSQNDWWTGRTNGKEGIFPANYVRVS
Test: SPOT array
Details: median of control spots 397

| Binder | SPOT intensity |
| --- | --- |
| B1 | 0 |
| B2 | 0 |
| B3 | 0 |
| B4 | 0 |

Target: Myo3, P36006
Test: SPOT array
Details: median of control spots 468

| Binder | SPOT intensity |
| --- | --- |
| B1 | 490 |
| B2 | 557 |
| B3 | 230 |
| B4 | 275 |

Target: T16, Myo5, Q04439
T16 sequence (Q04439 1072-1160, looked up): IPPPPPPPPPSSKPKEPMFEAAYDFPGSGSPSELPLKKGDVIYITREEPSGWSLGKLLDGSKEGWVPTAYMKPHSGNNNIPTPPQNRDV
Test: SPOT array
Details: median of control spots 471

| Binder | SPOT intensity |
| --- | --- |
| B1 | 132 |
| B2 | 489 |
| B3 | 325 |
| B4 | 263 |

Target: T17, Nbp2, Q12163
T17 sequence (Q12163 103-180, looked up): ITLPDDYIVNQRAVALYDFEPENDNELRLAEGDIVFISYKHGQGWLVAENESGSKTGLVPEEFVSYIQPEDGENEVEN
Test: SPOT array
Details: median of control spots 357

| Binder | SPOT intensity |
| --- | --- |
| B1 | 1 |
| B2 | 0 |
| B3 | 0 |
| B4 | 0 |

Target: T18, Pex13, P80667
T18 sequence (P80667 295-386, looked up): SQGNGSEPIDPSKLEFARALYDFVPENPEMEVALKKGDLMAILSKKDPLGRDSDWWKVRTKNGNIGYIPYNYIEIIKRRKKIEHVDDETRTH
Test: SPOT array
Details: median of control spots 1341

| Binder | SPOT intensity |
| --- | --- |
| B1 | 12 |
| B2 | 3 |
| B3 | 3 |
| B4 | 28 |

Target: T19, Pin3, Q06449
T19 sequence (Q06449 53-122, looked up): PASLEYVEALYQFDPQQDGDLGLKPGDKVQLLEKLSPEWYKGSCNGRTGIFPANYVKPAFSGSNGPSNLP
Test: SPOT array
Details: median of control spots 2171

| Binder | SPOT intensity |
| --- | --- |
| B1 | 0 |
| B2 | 0 |
| B3 | 0 |
| B4 | 0 |

Target: Rvs167, P39743
Sequence (P39743 419-482): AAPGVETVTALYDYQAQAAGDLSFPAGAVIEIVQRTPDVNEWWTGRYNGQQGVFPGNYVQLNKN
Test: SPOT array
Details: median of control spots 2707

| Binder | SPOT intensity |
| --- | --- |
| B1 | 0 |
| B2 | 0 |
| B3 | 0 |
| B4 | 0 |

Target: Sho1, P40073
Sequence (P40073 287-367): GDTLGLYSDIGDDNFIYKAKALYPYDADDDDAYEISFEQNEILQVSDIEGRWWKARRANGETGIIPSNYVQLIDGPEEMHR
Test: SPOT array
Details: median of control spots 1148

| Binder | SPOT intensity |
| --- | --- |
| B1 | 0 |
| B2 | 0 |
| B3 | 0 |
| B4 | 0 |

Target: T20, Sla1-2, P32790
T20 sequence (P32790 60-140, looked up): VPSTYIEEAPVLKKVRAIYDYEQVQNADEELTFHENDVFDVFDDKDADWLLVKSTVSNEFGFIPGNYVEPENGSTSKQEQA
Test: SPOT array
Details: median of control spots 712

| Binder | SPOT intensity |
| --- | --- |
| B1 | 0 |
| B2 | 0 |
| B3 | 0 |
| B4 | 0 |

Target: T21, Sla1-3, P32790
T21 sequence (P32790 344-424, looked up): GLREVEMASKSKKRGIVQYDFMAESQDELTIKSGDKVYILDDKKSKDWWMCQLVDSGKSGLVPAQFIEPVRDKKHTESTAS
Test: SPOT array
Details: median of control spots 5475

| Binder | SPOT intensity |
| --- | --- |
| B1 | 3 |
| B2 | 0 |
| B3 | 4 |
| B4 | 6 |
